The target in experiment [1] is T1, CD3 (Cluster of Differentiation 3) on Jurkat cells and on pan T cells (human, UniProt P07766 23-207).
T1 construct: whole, on cells
Description: cell ELISA on Jurkat cells (CD3), OD450. Background: An ELISA detects its analyte on a solid surface through an enzyme-linked reagent.

Experiment [2] addresses T1, CD3 (Cluster of Differentiation 3) on …. Nature of the experiment: cell ELISA on Jurkat cells (CD3), OD450; EC50 relative to v30421.
The target is the same in experiment [3]. Nature of the experiment: cell ELISA on CD3-bearing Jurkat cells, sample without uPa.
Experiment [4] has the same target. Nature of the experiment: cell ELISA on Jurkat cells (CD3), OD450. The source holds these as a separate data set.
The target of experiment [5] is T2, PD-L1 (Programmed death-ligand 1) on cells (UniProt Q9NZQ7 19-290).
T2 construct: whole, on cells
Nature of the experiment: flow cytometry on PD-L1 transfected CHO-S cells, sample without uPa. Background: Flow cytometry measures light scatter and fluorescence of single cells or particles in a stream.

Experiment [6] concerns the target T3, PD-1 (Programmed Cell Death Protein 1) on cells (UniProt Q15116 25-288).
T3 construct: whole, on cells
Description: flow cytometry on PD-1 transfected CHO-S cells, MFI; * poor fit.

The target in experiment [7] is T1, CD3 (Cluster of Differentiation 3) on …. Description: cell ELISA on Jurkat cells (CD3), OD450; EC50 relative to v30421. The source holds these as a separate data set.
The target of experiment [8] is T3, PD-1 (Programmed Cell Death Protein 1) …. Nature of the experiment: flow cytometry on PD-1 transfected CHO-S cells, uPa-treated sample.
The target is the same in experiment [9]. Nature of the experiment: flow cytometry on PD-1 transfected CHO-S cells, MFI; # Bmax constrained (footnote prints: to value of v31929).
Experiment [10] has the same target. Description: flow cytometry on PD-1 transfected CHO-S cells, MFI; reference sample.
The target is the same in experiment [11]. Description: flow cytometry on PD-1 transfected CHO-S cells, MFI.
The target is the same in experiment [12]. Description: flow cytometry on PD-1 transfected CHO-S cells (direct binding; the filing prints IC50).
Experiment [13] addresses T4, CD40 (Cluster of Differentiation 40) on cells (UniProt P25942 21-277, limits assumed). Description: cell-based or functional assay.
The target of experiment [14] is T4, CD40 (Cluster of Differentiation 40) on …. Description: flow cytometry on Raji cells (CD40), MFI.
The target is the same in experiment [15]. Nature of the experiment: flow cytometry on Raji cells, sample without uPa.
The target is the same in experiment [16]. Description: cell-based or functional assay. The source holds these as a separate data set.
The target of experiment [17] is T1, CD3 (Cluster of Differentiation 3) on …. Nature of the experiment: flow cytometry on pan T cells (CD3), MFI.
Experiment [18] has the same target. Description: flow cytometry on human pan T cells, uPa-treated sample.
Experiment [19] has as its target T2, PD-L1 (Programmed death-ligand 1) on …. Nature of the experiment: flow cytometry on PD-L1 transfected CHO-S cells, MFI; # Bmax constrained to value of v31929.
The target is the same in experiment [20]. Description: flow cytometry on PD-L1 transfected CHO-S cells, uPa-treated sample.
Experiment [21] addresses T4, CD40 (Cluster of Differentiation 40) on …. Nature of the experiment: flow cytometry on Raji cells (CD40), MFI; sample treated with uPa; EC50 relative to v32477 -uPa.
The target is the same in experiment [22]. Nature of the experiment: flow cytometry on Raji cells (CD40), MFI; sample treated with uPa (variant has no cleavage site).
The target is the same in experiment [23]. Description: flow cytometry on Raji cells, samples with and without uPa.

Like-named read-outs stand apart in the source and are kept apart here.

A word on the EC50: it is the concentration needed to bring the measured effect to its halfway point. In general, IC50 refers to the point on the concentration scale where inhibition reaches its midpoint. Low readings indicate higher potency, high ones lower potency.

B1: Variant 30444: WT CTLA4:WT CD80 masked CD3 × Her2 Fab × scFv Fc, CTLA4 cleavable (not treated with uPa) (bispecific antibody, human IgG1, kappa, L234A L235A)
heavy: not shown
light: MHVAQPAVVLASSRGIASFVCEYASPGKATEVRVTVLRQADSQVTEVCAATYMMGNELTFLDDSICTGTSSGNQVNLTIQGLRAMDTGLYICKVELMYPPPYYLGIGNGTQIYVIDPEEAAAKEAAAKMSGRSANADIQMTQSPSSLSASVGDRVTMTCSASSSVSYMNWYQQKPGKAPKRWIYDSSKLASGVPARFSGSGSGTDYTLTISSLQPEDFATYYCQQWSRNPPTFGGGTKLQITRTVAAPSVFIFPPSDEQLKSGTASVVCLLNNFYPREAKVQWKVDNALQSGNSQESVTEQDSKDSTYSLSSTLTLSKADYEKHKVYACEVTHQGLSSPVTKSFNRGEC
chain: not shown
notes: also called v30444
With B1, a half-maximal effect in experiment [1] (EC50) was put at 100 nM. For the same molecule, the “Fold wrt WT” value in [2] turned out to be 83 fold. Besides, in experiment [3], the “fold decrease of target binding” value is ~80 fold.

B2: Variant 30436: WT PD-1:HA PD-L1 masked CD3 × Her2 Fab × scFv Fc, PD-1 cleavable (not treated with uPa) (bispecific antibody, human IgG1, kappa, L234A L235A)
heavy: not shown
light: AFTVTVPKDLYVVEYGSNMTIECKFPVEKQLDLAALQVFWMMEDKNIIQFVHGEEDLKVQHSSYRQRARLLKDQLSLGNAALQITDVKLQDAGVYTCLIAYKGADYKRITVKVNAEAAAKEAAAKDIQMTQSPSSLSASVGDRVTMTCSASSSVSYMNWYQQKPGKAPKRWIYDSSKLASGVPARFSGSGSGTDYTLTISSLQPEDFATYYCQQWSRNPPTFGGGTKLQITRTVAAPSVFIFPPSDEQLKSGTASVVCLLNNFYPREAKVQWKVDNALQSGNSQESVTEQDSKDSTYSLSSTLTLSKADYEKHKVYACEVTHQGLSSPVTKSFNRGEC
chain: not shown
notes: also called masked, heavy-chain-cleavable variant
B2 registered an EC50 in experiment [4] of 180 nM. For the same molecule, the binding result in experiment [5] is “no binding (tested: titrated from 200 nM at a 1:3 dilution)”. Also, the “Fold wrt v31931” value in [6] is > 35 fold. The “Fold wrt WT” value in [7] came to 150 fold.

B3: Variant 30436 treated with uPa (+uPa): PD-1 moiety cleaved from the heavy chain, HA PD-L1 left on the light chain (bispecific antibody)
heavy: not shown
light: AFTVTVPKDLYVVEYGSNMTIECKFPVEKQLDLAALQVFWMMEDKNIIQFVHGEEDLKVQHSSYRQRARLLKDQLSLGNAALQITDVKLQDAGVYTCLIAYKGADYKRITVKVNAEAAAKEAAAKDIQMTQSPSSLSASVGDRVTMTCSASSSVSYMNWYQQKPGKAPKRWIYDSSKLASGVPARFSGSGSGTDYTLTISSLQPEDFATYYCQQWSRNPPTFGGGTKLQITRTVAAPSVFIFPPSDEQLKSGTASVVCLLNNFYPREAKVQWKVDNALQSGNSQESVTEQDSKDSTYSLSSTLTLSKADYEKHKVYACEVTHQGLSSPVTKSFNRGEC
chain: not shown
As for B3, the values for the 50% effective concentration (EC50) in [4] and in [9] were 6.2 nM and 67 nM, respectively. For the same molecule, the “fold of the one sided mask control 31931” value in experiment [8] worked out at 12 fold. Moreover, in [7], the “Fold wrt WT” value was 5.1 fold.

B4: Variant 31931: Half-masked CD3 × Her2 Fab × scFv Fc, HA PD-L1 attached to LC (bispecific antibody, human IgG1, kappa, L234A L235A)
heavy: not shown
light: AFTVTVPKDLYVVEYGSNMTIECKFPVEKQLDLAALQVFWMMEDKNIIQFVHGEEDLKVQHSSYRQRARLLKDQLSLGNAALQITDVKLQDAGVYTCLIAYKGADYKRITVKVNAEAAAKEAAAKDIQMTQSPSSLSASVGDRVTMTCSASSSVSYMNWYQQKPGKAPKRWIYDSSKLASGVPARFSGSGSGTDYTLTISSLQPEDFATYYCQQWSRNPPTFGGGTKLQITRTVAAPSVFIFPPSDEQLKSGTASVVCLLNNFYPREAKVQWKVDNALQSGNSQESVTEQDSKDSTYSLSSTLTLSKADYEKHKVYACEVTHQGLSSPVTKSFNRGEC
chain: not shown
On to B4, for which the results for the EC50 in experiment [4] and in experiment [11] were 5.3 nM and 5.8 nM, respectively. Further, the “Fold wrt v31931” value in experiment [10] was found to be 1 fold. Also, the 50% inhibitory concentration (IC50) in experiment [12] stood at 6 nM. In addition, in [7], the “Fold wrt WT” value stood at 4.4 fold.

B5: Variant 32479: HA PD-1:WT PD-L1 masked aCD40 Mab, PD-L1 cleavable (not treated with uPa) (antibody, human IgG1, kappa)
heavy: not shown
light: AFTVTVPKDLYVVEYGSNMTIECKFPVEKQLDLAALIVYWEMEDKNIIQFVHGEEDLKVQHSSYRQRARLLKDQLSLGNAALQITDVKLQDAGVYRCMISYGGADYKRITVKVNAEAAAKEAAAKMSGRSANADIQMTQSPSSVSASVGDRVTITCRASQGIYSWLAWYQQKPGKAPNLLIYTASTLQSGVPSRFSGSGSGTDFTLTISSLQPEDFATYYCQQANIFPLTFGGGTKVEIKRTVAAPSVFIFPPSDEQLKSGTASVVCLLNNFYPREAKVQWKVDNALQSGNSQESVTEQDSKDSTYSLSSTLTLSKADYEKHKVYACEVTHQGLSSPVTKSFNRGEC
notes: also called v32479; untreated v32479
Consider B5, for which, in experiment [13], the “EC50, CD40 RGA, FcgRIIB CHOK1 (sample v32479 - uPa)” value worked out at 2.64 µg/mL; the “EC50, CD40 RGA, WT CHOK1 (sample v32479 - uPa)” value came out at 44.7 µg/mL; the “Fold wrt WT (EC50), CD40 RGA, FcgRIIB CHOK1 (sample v32479 - uPa)” value is 54.3 fold; the “Fold wrt WT (EC50), CD40 RGA, WT CHOK1 (sample v32479 - uPa)” value was 326 fold. Also, it took 14 nM to reach a half-maximal effect in [14] (EC50). Moreover, in experiment [15], the “fold reduction of binding vs unmasked v32477” value amounted to 14 fold. In addition, in experiment [16], the “CD40 reporter gene assay, fold masking of activity” value was 55 fold.

B6: Variant 30430 treated with uPa (+uPa): PD-L1 moiety cleaved from the light chain, HA PD-1 left on the heavy chain (bispecific antibody)
chain 1: not shown
chain 2: SANADIQMTQSPSSLSASVGDRVTMTCSASSSVSYMNWYQQKPGKAPKRWIYDSSKLASGVPARFSGSGSGTDYTLTISSLQPEDFATYYCQQWSRNPPTFGGGTKLQITRTVAAPSVFIFPPSDEQLKSGTASVVCLLNNFYPREAKVQWKVDNALQSGNSQESVTEQDSKDSTYSLSSTLTLSKADYEKHKVYACEVTHQGLSSPVTKSFNRGEC
chain 3: not shown
As for B6, the EC50 came out at 6.7 nM in experiment [4], 6.7 nM in experiment [1], 67 nM in [17] and 18 nM in experiment [19]. In experiment [18], the “fold of the unmasked control after uPa treatment” value was determined as 29 fold. In addition, the “Fold wrt WT” value in experiment [2] and in experiment [7] was 5.5 fold in each case. Further, the “fold of the one-sided mask control 31929” value in [20] was 53 fold.

B7: Variant 32477: Unmasked aCD40 mAb (antibody, human IgG1, kappa)
heavy: not shown
light: DIQMTQSPSSVSASVGDRVTITCRASQGIYSWLAWYQQKPGKAPNLLIYTASTLQSGVPSRFSGSGSGTDFTLTISSLQPEDFATYYCQQANIFPLTFGGGTKVEIKRTVAAPSVFIFPPSDEQLKSGTASVVCLLNNFYPREAKVQWKVDNALQSGNSQESVTEQDSKDSTYSLSSTLTLSKADYEKHKVYACEVTHQGLSSPVTKSFNRGEC
notes: also called v32477
Regarding B7, in experiment [13], the “EC50, CD40 RGA, FcgRIIB CHOK1 (sample v32477 + uPa)” value came out at 0.03 µg/mL; the “EC50, CD40 RGA, FcgRIIB CHOK1 (sample v32477 - uPa)” value was 0.05 µg/mL; the “EC50, CD40 RGA, HEK Blue only (sample v32477 + uPa)” value was found to be 0.13 µg/mL; the “EC50, CD40 RGA, HEK Blue only (sample v32477 - uPa)” value is 0.15 µg/mL. For the same molecule, in experiment [13], the “EC50, CD40 RGA, WT CHOK1 (sample v32477 + uPa)” value was found to be 0.1 µg/mL; the “EC50, CD40 RGA, WT CHOK1 (sample v32477 - uPa)” value was found to be 0.14 µg/mL; the “Fold wrt WT (EC50), CD40 RGA, FcgRIIB CHOK1 (sample v32477 + uPa)” value is 0.71 fold; the “Fold wrt WT (EC50), CD40 RGA, HEK Blue only (sample v32477 + uPa)” value was 0.86 fold. For the same molecule, in experiment [13], the “Fold wrt WT (EC50), CD40 RGA, WT CHOK1 (sample v32477 + uPa)” value came to 0.75 fold. The EC50 in experiment [14] stood at 0.98 nM. For the same molecule, in experiment [21], the “Fold wrt WT” value amounted to 0.96 fold. In [22], this molecule came in with an EC50 of 0.94 nM. It took 1 nM to reach a half-maximal effect in experiment [23] (EC50).

For the origin of these results see patent US20230331809A1 (Zymeworks, published 2023).
